This note sets out measurements from PMC8277577.

The target in the assay is C144 (human). Description: BLI.

“SARS-CoV-2 receptor binding domain (RBD) (from UniProt P0DTC2 319-539) (domain or fragment)” gave a dissociation constant (Kd) of 149 nM.
